Tested on: Bacillus subtilis
Test: cleaved RNA product abundance (RNA/gDNA barcode ratio) relative to median wild-type variant (ratio to wild type); higher = more accumulation of the downstream cleavage product
Settings: cleavage site: cggR-gapA (positions -7 to +36 mutated)
Description: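 MPRA in B. subtilis. Mutagenized RNase Y cleavage-site regions (9% mutation rate) were inserted into a barcoded reporter mRNA (truncated aprE or tetM). Cells were grown in LB at 37°C to OD600 0.3. The cleaved RNA isoform was gel-purified and its barcodes counted; the RNA:gDNA barcode ratio was normalised to the median wild-type variant, and the median over barcodes is reported per variant. The printed sequence is the variable window only; the reporter flanks are not printed.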

[1] = experiment (reporter, strain, medium): exp 4a: truncated aprE reporter, strain BJT201 with 2% xylose (RNase J1 expressed)
[2] = experiment (reporter, strain, medium): exp 2b: truncated aprE reporter, strain BJT200
[3] = experiment (reporter, strain, medium): exp 6: tetM reporter, strain 168

Row | Sequence | cleaved RNA product abundance [1] | cleaved RNA product abundance [2] | cleaved RNA product abundance [3]
1 | ACAGACGAAGGAGCCGCAAAGAAATAATTAAGCGATGAATAATCCCTCAATATAAATATCTCTCACTTATTTAAA | 0.166 | – | –
2 | ACAGACGAAGGAGCCGCAAAGAAATAATTAAGGGATGAATAATCCCTCAATATAAATATCTCTCACTTATTTAAA | 0.381 | 0.25 | –
3 | ACAGACGAAGGAGCCGCAAAGAAATGATTAAGGGATGAATAATCCCTCAATATAAATATCTCTCACTTATTTAAA | 0.457 | 0.354 | –
4 | ACAGACGAAGGAGCCGCAAAGAAATTAATAAGGGATGAATAATCCCTCAATATAAATATCTCTCACTTATTTAAA | 0.245 | 0.223 | –
5 | ACAGACGAAGGAGCCGCAAAGAAATTACTAAGGGATGAATAATCCCTCAATATAAATATCTCTCACTTATTTAAA | 0.247 | – | –
6 | ACAGACGAAGGAGCCGCAAAGAAATTAGTAAGGGATGAATAATCCCTCAATATAAATATCTCTCACTTATTTAAA | 0.34 | 0.339 | –
7 | ACAGACGAAGGAGCCGCAAAGAAATTATAAAGGGATGAATAATCCCTCAATATAAATATCTCTCACTTATTTAAA | 0.342 | 0.215 | –
8 | ACAGACGAAGGAGCCGCAAAGAAATTATCAAGGGATGAATAATCCCTCAATATAAATATCTCTCACTTATTTAAA | 0.475 | – | –
9 | ACAGACGAAGGAGCCGCAAAGAAATTATGAAGGGATGAATAATCCCTCAATATAAATATCTCTCACTTATTTAAA | 0.386 | – | –
10 | ACAGACGAAGGAGCCGCAAAGAAATTATTAAAAGATGAATAATCCCTCAATATAAATATCTCTCACTTATTTAAA | 0.083 | – | –
11 | ACAGACGAAGGAGCCGCAAAGAAATTATTAAAGGATGAATAATCCCTCAATATAAATATCTCTCACTTATTTAAA | 0.221 | 0.144 | –
12 | ACAGACGAAGGAGCCGCAAAGAAATTATTAAAGGATTAATAATCCCTCAATATAAATATCTCTCACTTATTTAAA | 0.142 | – | –
13 | ACAGACGAAGGAGCCGCAAAGAAATTATTAACGGATGAATAATCCCTCAATATAAATATCTCTCACTTATTTAAA | 0.168 | 0.142 | –
14 | ACAGACGAAGGAGCCGCAAAGAAATTATTAAGAGATGAATAATCCCTCAAAATAAATATCTCTCACTTATTTAAA | – | 0.114 | –
15 | ACAGACGAAGGAGCCGCAAAGAAATTATTAAGAGATGAATAATCCCTCAATATAAATATCTCTCACTTATTTAAA | 0.112 | 0.121 | –
16 | ACAGACGAAGGAGCCGCAAAGAAATTATTAAGAGATGAATAATCCCTCTATATAAATATCTCTCACTTATTTAAA | 0.117 | – | –
17 | ACAGACGAAGGAGCCGCAAAGAAATTATTAAGAGATGAATTATCCCTCAATATAAATATCTCTCACTTATTTAAA | 0.121 | – | –
18 | ACAGACGAAGGAGCCGCAAAGAAATTATTAAGCGATGAATAATCACTCAATATAAATATCTCTCACTTATTTAAA | 0.184 | – | –
19 | ACAGACGAAGGAGCCGCAAAGAAATTATTAAGCGATGAATAATCCCTCAATATAAATATCTCTCACTTATTTAAA | 0.121 | 0.096 | –

Row | Sequence | cleaved RNA product abundance [1] | cleaved RNA product abundance [2] | cleaved RNA product abundance [3]
20 | ACAGACGAAGGAGCCGCAAAGAAATTATTAAGCGATTAATAATCCCTCAATATAAATATCTCTCACTTATTTAAA | 0.0984 | – | –
21 | ACAGACGAAGGAGCCGCAAAGAAATTATTAAGGAATGAATAATCCCTCAATATAAATATCTCTCACTTATTTAAA | 0.191 | 0.101 | 0.104
22 | ACAGACGAAGGAGCCGCAAAGAAATTATTAAGGAATGAATAATCCTTCAATATAAATATCTCTCACTTATTTAAA | 0.153 | – | –
23 | ACAGACGAAGGAGCCGCAAAGAAATTATTAAGGCATGAATAATCCCTCAATATAAATATCTCTCACTTATTTAAA | 0.122 | 0.109 | –
24 | ACAGACGAAGGAGCCGCAAAGAAATTATTAAGGGAAGAATAATCCCTCAATATAAATATCTCTCACTTATTTAAA | 0.599 | 0.394 | –
25 | ACAGACGAAGGAGCCGCAAAGAAATTATTAAGGGACGAATAATCCCTCAATATAAATATCTCTCACTTATTTAAA | 0.596 | 0.392 | –
26 | ACAGACGAAGGAGCCGCAAAGAAATTATTAAGGGATAAATAATCCATCAATATAAATATCTCTCACTTATTTAAA | 0.216 | – | –
27 | ACAGACGAAGGAGCCGCAAAGAAATTATTAAGGGATAAATAATCCCTCAATATAAATATCTCTCACTTATTTAAA | 0.761 | 0.818 | 1.1
28 | ACAGACGAAGGAGCCGCAAAGAAATTATTAAGGGATCAATAATCCCTCAATATAAATATCTCTCACTTATTTAAA | – | 0.646 | –
29 | ACAGACGAAGGAGCCGCAAAGAAATTATTAAGGGATGAAAAATCCCTCAATATAAATATCTCTCACTTATTTAAA | 0.598 | 0.852 | –
30 | ACAGACGAAGGAGCCGCAAAGAAATTATTAAGGGATGAATAAACCCTCAATATAAATATCTCTCACTTATTTAAA | 0.49 | 0.405 | –
31 | ACAGACGAAGGAGCCGCAAAGAAATTATTAAGGGATGAATAACCCCTCAATATAAATATCTCTCACTTATTTAAA | 0.671 | – | –
32 | ACAGACGAAGGAGCCGCAAAGAAATTATTAAGGGATGAATAAGCCCTCAATATAAATATCTCTCACTTATTTAAA | 0.416 | – | –
33 | ACAGACGAAGGAGCCGCAAAGAAATTATTAAGGGATGAATAATAACTCAATATAAATATCTCTCACTTATTTAAA | 0.168 | – | –
34 | ACAGACGAAGGAGCCGCAAAGAAATTATTAAGGGATGAATAATACCTCAATATAAATATCTCTCACTTATTTAAA | 0.153 | 0.141 | –
35 | ACAGACGAAGGAGCCGCAAAGAAATTATTAAGGGATGAATAATCACTCAATATAAATATCTCTCACTTATTTAAA | 0.122 | 0.136 | –
36 | ACAGACGAAGGAGCCGCAAAGAAATTATTAAGGGATGAATAATCCATCAAGATAAATATCTCTCACTTATTTAAA | 0.118 | – | –
37 | ACAGACGAAGGAGCCGCAAAGAAATTATTAAGGGATGAATAATCCATCAATATAAATATCTCTCACTTATTTAAA | 0.201 | 0.163 | –
38 | ACAGACGAAGGAGCCGCAAAGAAATTATTAAGGGATGAATAATCCCACAATATAAATATCTCTCACTTATTTAAA | 0.298 | 0.195 | –

Row | Sequence | cleaved RNA product abundance [1] | cleaved RNA product abundance [2] | cleaved RNA product abundance [3]
39 | ACAGACGAAGGAGCCGCAAAGAAATTATTAAGGGATGAATAATCCCCCAATATAAATATCTCTCACTTATTTAAA | 0.465 | – | –
40 | ACAGACGAAGGAGCCGCAAAGAAATTATTAAGGGATGAATAATCCCGCAATATAAATATCTCTCACTTATTTAAA | 0.214 | – | –
41 | ACAGACGAAGGAGCCGCAAAGAAATTATTAAGGGATGAATAATCCCTAAATATAAATATCTCTCACTTATTTAAA | 0.667 | 0.458 | –
42 | ACAGACGAAGGAGCCGCAAAGAAATTATTAAGGGATGAATAATCCCTCAAAATAAATATCTCTCACTTATTTAAA | 0.365 | 0.257 | –
43 | ACAGACGAAGGAGCCGCAAAGAAATTATTAAGGGATGAATAATCCCTCAACATAAATATCTCTCACTTATTTAAA | 0.234 | – | –
44 | ACAGACGAAGGAGCCGCAAAGAAATTATTAAGGGATGAATAATCCCTCAAGATAAATATCTCTCACTTATTTAAA | 0.189 | 0.188 | –
45 | ACAGACGAAGGAGCCGCAAAGAAATTATTAAGGGATGAATAATCCCTCAATAAAAATATCTCTCACTTATTTAAA | – | 0.178 | –
46 | ACAGACGAAGGAGCCGCAAAGAAATTATTAAGGGATGAATAATCCCTCAATATAAAAATCTCTCACTTATTTAAA | 0.568 | – | –
47 | ACAGACGAAGGAGCCGCAAAGAAATTATTAAGGGATGAATAATCCCTCAATATAAATAGCTCTCACTTATTTAAA | 0.435 | – | –
48 | ACAGACGAAGGAGCCGCAAAGAAATTATTAAGGGATGAATAATCCCTCAATATAAATATATCTCACTTATTTAAA | 1.19 | – | –
49 | ACAGACGAAGGAGCCGCAAAGAAATTATTAAGGGATGAATAATCCCTCAATATAAATATCTCTCACTTATTTAAA | 0.783 | 0.826 | 0.759
50 | ACAGACGAAGGAGCCGCAAAGAAATTATTAAGGGATGAATAATCCCTCAATATAAATCTCTCTCACTTATTTAAA | 0.66 | – | –
51 | ACAGACGAAGGAGCCGCAAAGAAATTATTAAGGGATGAATAATCCCTCAATATAAATTTCTCTCACTTATTTAAA | 0.361 | – | –
52 | ACAGACGAAGGAGCCGCAAAGAAATTATTAAGGGATGAATAATCCCTCAATATAACTATCTCTCACTTATTTAAA | 0.325 | – | –
53 | ACAGACGAAGGAGCCGCAAAGAAATTATTAAGGGATGAATAATCCCTCAATATACATATCTCTCACTTATTTAAA | 0.46 | – | –
54 | ACAGACGAAGGAGCCGCAAAGAAATTATTAAGGGATGAATAATCCCTCAATATAGATATCTCTCACTTATTTAAA | 0.474 | – | –
55 | ACAGACGAAGGAGCCGCAAAGAAATTATTAAGGGATGAATAATCCCTCAATATATATATCTCTCACTTATTTAAA | 0.766 | – | –
56 | ACAGACGAAGGAGCCGCAAAGAAATTATTAAGGGATGAATAATCCCTCAATTTAAATATCTCTCACTTATTTAAA | 0.153 | – | –
57 | ACAGACGAAGGAGCCGCAAAGAAATTATTAAGGGATGAATAATCCCTCAGTATAAATATCTCTCACTTATTTAAA | 0.215 | – | –

Source: the supplement of paper PMC11780869
